Test results as given in patent publication US20230406885A1, “CYCLIC PEPTIDES FOR TRAPPING INTERLEUKIN-1 BETA” (MERCK SHARP & DOHME LLC, priority 2022, published 2023).
*1 amine or outer side, *2 acyl side, *3 side chain or, on linkers, in order; H or OH if unused. [ ]: non-standard residue; d: D form. Pro(trans-4-NH2) = O=C([C@@H]1C[C@@H](N[*:3])CN1[*:1])[*:2]; Trp(βS-Me,4-F) = C[C@@H](c1c[nH]c2cccc(F)c12)[C@H](N)C(=O)O; Bip(4'-COOH) = N[C@@H](Cc1ccc(-c2ccc(C(=O)O)cc2)cc1)C(=O)O; Phe(3-CH2NH2) = O=C([C@H](Cc1cccc(CN[*:3])c1)N[*:1])[*:2]; mBip = (S)-2-amino-3-(3-phenylphenyl)propanoic acid; Phe(3-allyloxy) = C=CCOc1cccc(C[C@H](N)C(=O)O)c1; Phe(4-COOH) = N[C@@H](Cc1ccc(C(=O)O)cc1)C(=O)O; hTyr = N[C@@H](CCc1ccc(O)cc1)C(=O)O; dDab = NCC[C@@H](N)C(=O)O; dNMeA = CN[C@H](C)C(=O)O

Target: Recombinant human IL-1β (BioLegend 579404) (human, UniProt P01584 117-269)
Test: cell-based or functional assay

| Binder | MRC5 IC50 [nM] |
| --- | --- |
| cyclo([Bip(4'-COOH)]W[Phe(4-COOH)]G[Pro(trans-4-NH2)][Trp(βS-Me,4-F)]D[dNMeA]G[Bip(4'-COOH)][Phe(3-CH2NH2)]L[dA][hTyr]) (SMILES CC(C)C[C@@H]1NC(=O)[C@H](Cc2cccc(CN)c2)NC(=O)[C@H](Cc2ccc(-c3ccc(C(=O)O)cc3)cc2)NC(=O)CNC(=O)[C@@H](C)N(C)C(=O)[C@H](CC(=O)O)NC(=O)[C@H]([C@@H](C)c2c[nH]c3cccc(F)c23)NC(=O)[C@@H]2C[C@@H](N)CN2C(=O)CNC(=O)[C@H](Cc2ccc(C(=O)O)cc2)NC(=O)[C@H](Cc2c[nH]c3ccccc23)NC(=O)[C@H](Cc2ccc(-c3ccc(C(=O)O)cc3)cc2)NC(=O)[C@H](CCc2ccc(O)cc2)NC(=O)[C@@H](C)NC1=O) [SEQ ID NO: 73] | 0.0509 |
| cyclo([Bip(4'-COOH)]W[Phe(4-COOH)]G[Pro(trans-4-NH2)][Trp(βS-Me,4-F)]D[dNMeA]G[Bip(4'-COOH)][Phe(3-CH2NH2)]S[dA][hTyr]) (SMILES C[C@@H]1C(=O)NCC(=O)N[C@@H](Cc2ccc(-c3ccc(C(=O)O)cc3)cc2)C(=O)N[C@@H](Cc2cccc(CN)c2)C(=O)N[C@@H](CO)C(=O)N[C@H](C)C(=O)N[C@@H](CCc2ccc(O)cc2)C(=O)N[C@@H](Cc2ccc(-c3ccc(C(=O)O)cc3)cc2)C(=O)N[C@@H](Cc2c[nH]c3ccccc23)C(=O)N[C@@H](Cc2ccc(C(=O)O)cc2)C(=O)NCC(=O)N2C[C@H](N)C[C@H]2C(=O)N[C@@H]([C@@H](C)c2c[nH]c3cccc(F)c23)C(=O)N[C@@H](CC(=O)O)C(=O)N1C) [SEQ ID NO: 74] | 0.296 |
| cyclo([Bip(4'-COOH)]W[Phe(4-COOH)]G[Pro(trans-4-NH2)][Trp(βS-Me,4-F)]D[dNMeA]G[Bip(4'-COOH)]WG[dDab][hTyr]) (SMILES C[C@@H]1C(=O)NCC(=O)N[C@@H](Cc2ccc(-c3ccc(C(=O)O)cc3)cc2)C(=O)N[C@@H](Cc2c[nH]c3ccccc23)C(=O)NCC(=O)N[C@H](CCN)C(=O)N[C@@H](CCc2ccc(O)cc2)C(=O)N[C@@H](Cc2ccc(-c3ccc(C(=O)O)cc3)cc2)C(=O)N[C@@H](Cc2c[nH]c3ccccc23)C(=O)N[C@@H](Cc2ccc(C(=O)O)cc2)C(=O)NCC(=O)N2C[C@H](N)C[C@H]2C(=O)N[C@@H]([C@@H](C)c2c[nH]c3cccc(F)c23)C(=O)N[C@@H](CC(=O)O)C(=O)N1C) [SEQ ID NO: 77] | 0.0601 |
| cyclo([Bip(4'-COOH)]W[Phe(4-COOH)]G[Pro(trans-4-NH2)][Trp(βS-Me,4-F)]D[dNMeA]G[Bip(4'-COOH)][Phe(3-allyloxy)]L[dA][hTyr]) (SMILES C=CCOc1cccc(C[C@@H]2NC(=O)[C@H](Cc3ccc(-c4ccc(C(=O)O)cc4)cc3)NC(=O)CNC(=O)[C@@H](C)N(C)C(=O)[C@H](CC(=O)O)NC(=O)[C@H]([C@@H](C)c3c[nH]c4cccc(F)c34)NC(=O)[C@@H]3C[C@@H](N)CN3C(=O)CNC(=O)[C@H](Cc3ccc(C(=O)O)cc3)NC(=O)[C@H](Cc3c[nH]c4ccccc34)NC(=O)[C@H](Cc3ccc(-c4ccc(C(=O)O)cc4)cc3)NC(=O)[C@H](CCc3ccc(O)cc3)NC(=O)[C@@H](C)NC(=O)[C@H](CC(C)C)NC2=O)c1) [SEQ ID NO: 76] | 0.122 |
| cyclo([Bip(4'-COOH)]W[Phe(4-COOH)]G[Pro(trans-4-NH2)][Trp(βS-Me,4-F)]D[dNMeA]G[Bip(4'-COOH)][mBip]L[dA][hTyr]) [SEQ ID NO: 75] | 0.165 |
